What was measured:
human gp130-his [1] = target: T1, human gp130-his (human, UniProt P40189 23-619); experiment: ELISA; receptor competitive ELISA: wells coated with LIFR-his or gp130-his (100 ng/well); hLIF-hFc (50 ng) pre-mixed with recombinant antibody at 4 C for 1 h, then 37 C for 1 h on the plate; detected with HRP goat anti-human IgG; details: both partners purified
T1 construct: gp130 (interleukin-6 receptor subunit beta), human; source: bought: Sino Biological
T1 sequence (looked up): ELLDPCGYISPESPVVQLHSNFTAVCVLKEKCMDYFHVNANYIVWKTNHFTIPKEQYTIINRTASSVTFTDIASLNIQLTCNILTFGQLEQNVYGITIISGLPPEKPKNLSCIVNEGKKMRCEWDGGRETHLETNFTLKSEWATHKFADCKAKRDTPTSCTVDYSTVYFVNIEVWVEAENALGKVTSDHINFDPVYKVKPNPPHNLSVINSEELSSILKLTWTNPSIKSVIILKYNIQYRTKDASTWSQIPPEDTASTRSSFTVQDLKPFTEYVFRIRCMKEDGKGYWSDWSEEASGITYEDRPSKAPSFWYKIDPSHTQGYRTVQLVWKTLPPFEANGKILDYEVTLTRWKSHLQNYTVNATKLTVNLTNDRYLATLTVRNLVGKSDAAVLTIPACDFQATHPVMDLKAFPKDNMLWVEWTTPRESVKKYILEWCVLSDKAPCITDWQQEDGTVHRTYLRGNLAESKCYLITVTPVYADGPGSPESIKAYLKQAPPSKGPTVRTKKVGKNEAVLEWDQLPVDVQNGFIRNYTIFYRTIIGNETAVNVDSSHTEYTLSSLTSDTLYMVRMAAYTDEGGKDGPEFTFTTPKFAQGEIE

human gp130-his [2] = target: T1, human gp130-his; experiment: SPR; Biacore 8K, CM5 chip with anti-mouse IgG, 1G11 captured; 200 nM hLIF flowed, followed by 500 nM LIFR-his or gp130-his; 25 C, pH 7.4, 10 mM HEPES, 150 mM NaCl, 3 mM EDTA, 0.05% Tween-20; details: both partners purified

| Binder | binding result (human gp130-his [1]) | binding result (human gp130-his [2]) |
| --- | --- | --- |
| human LIF with human IgG1-Fc tag (Fc fusion, also called hLIF-hFc; LIF-hFc) not shown | binds | – |
| human LIF (ligand, also called hLIF; source: bought: Genscript) not shown | – | binds |
